From the DeepSol protein solubility set

experiment: soluble on expression in E. coli; label from the status in PepcDB or PDB records

Row | Sequence | soluble on expression in E. coli
1 | MGSDKIHHHHHHMTPITQSEINKAAWGACDTFRGVVDPSIYKDYVLTMLFLKYVSDVWKDHKASYAAHYPDSPELVAAMMERETFKLPETASFDALHGRRHEPGNGERIDKALHAIEEANGSKLRDVFQDISFNSNKLGDEEQKNDILRHLLEDFAKTALDLRPSRVGNLDIIGGAYEYLISRFAATAGKKAGEFYTPAEVSELMARLVDPQPGDDICDPTCGSASLLMKCGRLIREGGSKAYALFGQEAIGSTWALAKMNLFLHGEENHQIEWGDTIRNPKLRTSDDMLRHFDVVVANPPFSLDKWGVESAEADKFARFRRGIPPKTKGDYAFILHMIETLKPKTGRMAVVVPHGVLFRGSSEGKIRHKLIEDNLLDAVIGLPEKLFFGTGIPSAILVFRKDKADDSVLFVDASREFVAGTNQNALDMTLIEKIVATHQTRQTVEKYAYRATLAEIIENDFNLNIPRYVDTFEEEEEIDLMAVRAERMKLKGEMAELEDRMEGYLQELGY | not soluble
2 | MGSDKIHHHHHHMQQSQTIYLMGTVIDVFVDHEESEKILEEVHQRLITYEQRFSANDSTSELMAVNQQAGQKPVSVHPELYQLIALGKKHSCDPASHLNVTIGPLVQTWRIGFKDARVPSEEEIKACLKKINPEKIHLNPLKQTVFLEEEGMKLDLGALAKGYIADLLIAYLKEVHVTSALINLGGNIVTLGPSTHQNKKWRIGIRNPQESRETISLLVEVANQSVVTSGIYERSLTEAGRVYHHLLDPTTGYPLETEMASLTIISDASVDGEIWTTRLFGYPIPEALEILNQLDGIEGVIITQDQQILYSSGLADTLHIIHS | not soluble
3 | MEKKTNCIQNEEQKKEKELIAEKAAKAGFVNRLYVNIGQKVGVVELTKLEPRFERNIDKLTSYHNLIYKIVNVIELQVQFMPKAMAKKAVLCAPGENPWEVLGGWLNYLGKNQFDGQHSKMLEKYSSACGRIAQKEIQVQKRTRSHLIKKMRLYTGEESEILNSNVENLNNLLHAIDDSRHHVKSSKTTKEVKAKGETYRKAINAFNETANEVQALIDEVAMVVPLHENEFLKFSREASVYHDTVHNSLSEVIFRLGYHVKKH | not soluble
4 | MFVFDATPLIYLAKAERLSLLSRLDASRLIPQRVYEEVVTVGLDAGYPDARRIEQSVEEGTFDVVSVPETTLFDRLSGNPNVSDADVAVLALAADHGATAVMDDAYGRDIAAVEAIETRGTAYLVLSLVRDGELEADDARETLEAMLDAGWHCSPSLYSKLLSKLEELAVGGADNRLEHHHHHH | not soluble
5 | MSLRVLFCSSEIYPYAKTGGLADFSFCLIKYLKKYGVKVKGVMPYYKTLKAENLRKTDKGVTLNLNGKDYTFEVYESEDCYFLRNDELFGRDYIYGPPGWGYEDNDIRFGGFSRAVSELISTGQLEADVVHANDWQTALIPLFLKEVFKTPVKTVFTIHNLAYQGLFPKETVERVGIPPYLFHMEAVEFWGLVNFMKGGIVFSDLITTVSPTYAKEIQTQEYGYGLEGVLKKYSYKLRGILNGIDYEVWNPEKDKYIYQNYSLRNYSKKFKNKEFLSKELGIEAEKPLISFINRFTHQKGVELILNCAEEMSKLNANFVFLGTGEYENAFLDVSKIYKNFKVFAEFNEGFARKLYASSDFILMPSYFEPCGLTQMIGMRYGCVPIVRKTGGLRDTVKDISEGGYGITFEEPSKETFLCSLKRAIELYENAKKFRNSVKIVMSLDFSCDRMTKEYIECYEEVQSHQEGHHHHHH | soluble
6 | MAHHHHHHMMRLSRLGVTAAAAAPSSFPLLQQLRGVRYANIQETLKPIPGQTAGQISILNEICCNPDAEEERRKPVFRAEVMPDAAAAAEEDNYLHTMHKWGYDSLTLFKKTNEDPGPWWNANASTLASNWSQVGDYANAGMWSGVWRYTYGIGEYNLRPYELRGRAWGRKDPKTGAVMIRYGKRSTSKPVQRLCFPHTKEHEQHHRIKNPANKDVKEISALHGKRILRELQYHLGQGLRFYLVDGVFGSDPGTATPYRIITDTPTHAYFASMAAIRTFNYVARQEVTLVKRLSQSPIDEWGWRRPGVLIYHAPSYDFESPRIVEEFGGPRPKDMGLSHNRFIATEPYSIPMKCAMGGEPSCDALLDSTAMLCGRWGFYADEKGYLTVPGESIMSKDGRSLTLVITGDEADADALRTSPQLYGSRHHRIANGVVSRAWDVVSMPACATGAKPLPTDIVEQDLQRVQRSLPTRMGLPHTLSHRHHGRRHVSEYGFKWPHNYTEDVSTKAYAGGHLFKAPKTDKLAGHQPRPSRFLMKDVDVVVIGEGVDAAAAVVSTLKDRGMLYAEEAPLKEAMATALKAAKSVKVVPRASSKVVLGKLTHV | not soluble
7 | MGSDKIHHHHHHMDSIQESDVLNAVKTKLPPCCLRIFRNKIILVGTYDLDKSTGYRSGSLDVFTMDLKLLCSNNTYGAILDLKLSPFDDTLICTAHSTGNIMLWRIRCTDKDDFQSNELDIHAIANLQLFEKDVLIASCHFSPLDCKKLLVTNTAGEAATIDIRTLSVQFTASAIAQAYSKLDKIDYEVQGATEKVIHVESGQFLKPHELECWTAEFGSLQPFQDVVFTGGDDSRIMAHDLRSKEFIWSNNRIHDAGVVSIKCSQPNFRNNKPTSIITGSYDDNIRSLDLRMMGESIFPGANVPTVNKLACDLGGGVWRFVESPIDQEQSHHNGSDRLLVCCMYNGAKVVTMNDNSDEYFQIQHYLKKGHDSMCYGGDWSNSLIATCSFYDNSLQTWIV | not soluble
8 | MDSQKLRTEGKKMLDFVADYWDGIRDRKPLPDVKPGYINDLVPAQAPATPEDWAKIFDDLENVVVNGATHWHHPHFFAYFPTALSYQSIMADILSGGIAGIGFTWKSCPSMTELEMSSLDWVVDLMGLPEHFKNSHNGPGCGIIQSTASDSTMIAIMAARATHVERIKSEPTFMKWVSETGVGKTLKNIFDRVKVNKVDDEASGMITPYFHDPTVFERFVMYCSDQAHSSVEKGAMLSAVRMRKLKATRGFLGNYGVSRETLQNAIKEDRARGYIPFMFLATVGTTCSCGVDQVDELGPVCVEEGLYLHVDAAYAGTFALCEEFKYLIRGMEHVDSFNFNLHKAGMVNFDCSPMWFKNGTHVSRYFNVDAVYLAHEYQTTASDYRHLQVALGRRFRSLKIWFVLRNMGVDKIREYLRRTELLAAEFSKLILENGKFEHFVPQHLGLTCFRLKNSTNADNEKLCNAINDDRRIHLVPSTVHGTYFLRMVVCSQLTTLDDIIYARDVIFELAEKLF | not soluble
9 | VRGLPRAKKLEKLGVFSACKANGTCKCNGWKNPKPPTAPRIDLQQPAANLSELCRSCEHPLADHVSHLENVSEDEINRLLGMVVDVENLFMSVHKEEDTDTKQVYFYLFKLLRKCILQMTRPVVEGSLGSPPFEKPNIEQGVLNFVQYKFSHLAPRERQTMFELSKMFLLCLNYWELETPAQFRQRSQAEDVATYKVNYTRWLCYCHVPQSCDSLPRYETTHVFGRS | soluble
10 | MIKVDHRPLYLQVIDKLKHDMEAGVYEEGEKLPSEFELSKQLGVSRATLREALRLLEEEGVVVRRHGVGTFVHTKPLFSAGIEELYSVTDMIRHADMEPGTIFLSSYQIEATDDDKRRFQTDNLDQLMMIERVRTADGVPIVYCLDKLPAELIGQHSVHEINSILDHLESGSDRMITHAVTTIEPIGFHEKVSEILECEAETGLLLLKQMHYDQYDTPVLYSYNYFRADKFTFHVVRKRVKA | not soluble
11 | LTCYGDSGQPVDWFVVYKLPALRGSGEAAQRGLQYKYLDESSGGWRDGRALINSPEGAVGRSLQPLYRSNTSQLAFLLYNDQPPQPSKAQDSSMRGHTKGVLLLDHDGGFWLVHSVPNFPPPASSAAYSWPHSACTYGQTLLCVSFPFAQFSKMGKQLTYTYPWVYNYQLEGIFAQEFPDLENVVKGHHVSQEPWNSSITLTSQAGAVFQSFAKFSKFGDDLYSGWLAAALGTNLQVQFWHKTVGILPSNCSDIWQVLNVNQIAFPGPAGPSFNSTEDHSKWCVSPKGPWTCVGDMNRNQGEEQRGGGTLCAQLPALWKAFQPLVKNYQPCNGMARKPSRAYKI | soluble
12 | MSLSSITNVAATAGVSIATVSRVLSGKRGKDDDIARRVREAAKQLGYSVNYAASALRSDVTKTIGLVIPSATEPFSAQLLDEIEPTIDTESQQLLLGIGATQEAQAERIESLVNRHVDGLIVVPAAGADLAGTLNQYANTLPIVQICGRQTAPRVSVVGIDENAAMEAIVKHLAEQGIASAAYMAGDELSFESAELFATFHTHMRTYGLVTSENWNQFGERTVQRGFDCAMRLFNGPLVQPEAVVCADDAIAFGVMVAFDALGIRVPEDVLVVGYHDSAIARTTMPRLTSVRAPFERIVSECLRLLASGPAGGAAETAAAPGGSVRAPRVMLAPQLIVRDSSVFREGHHHHHH | soluble
13 | MKAKTDFFHMKQAGEPIVMVTAYDFPSAKLAEQAGVDMILVGDSLGMVVLGYDSTIPVTVDDMIHHTKAVRRGAPNTFIVTDMPFMSYHASKEEALQNARRIMQESGANAVKVEGADEVVDMIAALTKAGVPVVAHLGLTPQSVGVLGGYKVQGKDAESAKKLLDDAKQCEQAGAIALVLECVPKQLGAAMARELTIPVIGIGAGAEVDGQVLVYHDLLGYGVTRVPKFVKQYASIQETIVEALANYVADVKLRQFPEPAHTFTMKEEEWVALYGGKQG | not soluble
14 | MGHHHHHHSHMSPVLTQHVSQPITLDEQTQKMKRHLLQDIRRSAYVYRVDCGGCNACEIEIFAAITPVFDAERFGIKVVSSPRHADILLFTGAVTRAMRMPALRAYESAPDHKICVSYGACGVGGGIFHDLYSVWGGSDTIVPIDVWIPGCPPTPAATIHGFAVALGLLQQKIHAVDYRDPTGVTMQPLWPQIPPSQRIAIEREARRLAGYRQGREICDRLLRHLSDDPTGNRVNTWLRDADDPRLNSIVQQLFRVLRGLHD | not soluble
15 | EIINEEGKLERKADMFTRRTIQTHRAVTSVDTAVEALAVSIGEKACVDLGYMASLMGGPEKIPQIVEDLKGIIFKNPATGPFDLEDGGAHWHQGWQTADEYLSGNVRAKLAIARAAAEENPQFAINAEKLEQVQPKDLTASEISVRIGASWIDPEYYQQFMFELLHTPVYLQDRKIKLQYSPTTGEWNVQGKSTDNRDNVRVYATYGTKRINAYEIFEQTLNQRDVRIFDKTEVDGKEVRVLNEKQTAIAQQKQEAMCETFKDWIFKDPERRETLCRRYNEKFNCIRPREYDGSHIRFAGMNPEISLRTHQ | not soluble
16 | MSLAQTSDWDSVVAQAKKEGSVTFNVWYLQPQWRSFVKDFEQKYDIKVRIPEGSIDGNMNKLLAETRREQGKIDVIALSIAQLPITMGAKSLAKVDDLPGYQDAYHQLQNVDTQGYAVAFWGNQTGFAYDPQQMGDRPLPQTMEELQRFIDANPKRFGYNDPNNGGAGEAFIQRIVTTLSGDFSSESDTVDPTVIKDWQKGWQWFASNNNNITRTASGADSLTRLNDGELMLTPAWEDHLSGLQKTGAITSRLKFYVPEFGMPGGGNIASIAANSPHPAASRVFLNWLIQADTQKALNEAFGSTPMNKQLNADVKQPDTPVQFYGKAYSMQMKKEFARQVMTREGHHHHHH | soluble
17 | MFMGKLPHQADLIGALIEAAGANGIRAGAIQVIGALQGAKLGFYDQWSKSYRELPFAKPLEIVSGLGNISLRDGRPFVHLHLSISDEEGKVFGGHALEGCTIFAAEYAIMPLPGSAPVRVFDETTGLFLWEREQYPASGQKGLSPELERALLNPLEHHHHHH | soluble
18 | MEKNWYVVHTYSGYENKVKANLEKRVESMGMQDKIFRVVVPEEEETDIKNGKKKVVKKKVFPGYVLVEIVMTDDSWYVVRNTPGVTGFVGSAGSGSKPTPLLPGEAETILKRMGMDERKTDIDFELKETVKVIDGPFANFTGSIEEIDYDKSKVKVFVNMFGRETPVELEFTQIDKLLEHHHHHH | not soluble
